T1: HLA-DR molecule encoded by the allele DRB3*0101 (human)
T1 chain 1: not shown
T1 chain 2: not shown

T2: HLA-DR molecule encoded by the allele DRB1*1301 (human)
T2 chain 1: not shown
T2 chain 2: not shown

T3: HLA-DR molecule encoded by the allele DRB4*0101 (human)
T3 chain 1: not shown
T3 chain 2: not shown

Experimental findings from US20040115622A1 are described below.

The IC50 is the point on the concentration scale where inhibition reaches its midpoint. Read a low IC50 as greater potency in that assay.

The target of the first assay is T1, HLA-DR molecule encoded by the allele …. The assay can be described thus: competition ELISA vs biotinylated Lol 191-210.
WIYHTQGYFPDWQNYT (modifications not checked) [Nef7 peptide (positions 113-128 of the HIV-1 Nef protein, Bru strain), P03406 113-128] displayed an IC50 of 75 nM.
Still for that read-out and setting: then WRFDSRLAFHHVARE (modifications not checked) [Nef13.3 peptide (positions 183-197 of the HIV-1 Nef protein, Bru strain), P03406 183-197], with 5000 nM.
Still for that read-out and setting: then LTFGWCYKLVPVEPDKVEEANKGENTSLLHPV (modifications not checked) [Nef10 peptide (positions 137-168 of the HIV-1 Nef protein, Bru strain), P03406 137-168], with 3500 nM; and TQGYFPDWQNYTPGPG (modifications not checked) [Nef8 peptide (positions 117-132 of the HIV-1 Nef protein, Bru strain), P03406 117-132], with 120 nM.
As for EWRFDSRLAFHHVAREL (modifications not checked) [Nef13 peptide (positions 182-198 of the HIV-1 Nef protein, Bru strain), P03406 182-198], the 50% inhibitory concentration (IC50) is 250 nM. This IC50 is about 2.1-fold higher than that of the molecule before.
In the case of REVLEWRFDSRLAFH (modifications not checked) [Nef13.1 peptide (positions 178-192 of the HIV-1 Nef protein, Bru strain), P03406 178-192], the IC50 is 28 nM.
As for DPEREVLEWRFDSRLA (modifications not checked) [Nef12 peptide (positions 175-190 of the HIV-1 Nef protein, Bru strain), P03406 175-190], the IC50 was 145 nM. This IC50 is about 5.2-fold higher than that of the molecule before.

For the next assay, the target named is HLA-DR molecule encoded by the allele DRB1*1501 (human). Nature of the assay: competition ELISA vs biotinylated A3 152-166. (ELISA stands for enzyme-linked immunosorbent assay.)
WIYHTQGYFPDWQNYT (modifications not checked) [Nef7 peptide (positions 113-128 of the HIV-1 Nef protein, Bru strain), P03406 113-128] gave an IC50 of 9000 nM.
Turning to LTFGWCYKLVPVEPDKVEEANKGENTSLLHPV (modifications not checked) [Nef10 peptide (positions 137-168 of the HIV-1 Nef protein, Bru strain), P03406 137-168], the 50% inhibitory concentration (IC50) stood at 1250 nM.
Regarding DPEREVLEWRFDSRLA (modifications not checked) [Nef12 peptide (positions 175-190 of the HIV-1 Nef protein, Bru strain), P03406 175-190], the IC50 came to 13 nM.

In another assay the target is HLA-DR molecule encoded by the allele DRB1*1101 (human). The assay can be described thus: competition ELISA vs biotinylated HA 306-318.
As to WRFDSRLAFHHVARE (modifications not checked) [Nef13.3 peptide (positions 183-197 of the HIV-1 Nef protein, Bru strain), P03406 183-197], the 50% inhibitory concentration (IC50) worked out at 11 nM.
Same read-out and setting: then LTFGWCYKLVPVEPDKVEEANKGENTSLLHPV (modifications not checked) [Nef10 peptide (positions 137-168 of the HIV-1 Nef protein, Bru strain), P03406 137-168], with 45 nM.
On to EWRFDSRLAFHHVAREL (modifications not checked) [Nef13 peptide (positions 182-198 of the HIV-1 Nef protein, Bru strain), P03406 182-198], for which the concentration for half-maximal inhibition (IC50) stood at 48 nM.
The molecule REVLEWRFDSRLAFH (modifications not checked) [Nef13.1 peptide (positions 178-192 of the HIV-1 Nef protein, Bru strain), P03406 178-192] returned an IC50 of 8 nM.
The molecule DPEREVLEWRFDSRLA (modifications not checked) [Nef12 peptide (positions 175-190 of the HIV-1 Nef protein, Bru strain), P03406 175-190] displayed a half-maximal inhibitory concentration (IC50) of 125 nM. This IC50 is about 16-fold higher than that of the molecule before.

In another assay the target is HLA-DR molecule encoded by the allele DRB1*0101 (human). The assay can be described thus: competition ELISA vs biotinylated HA 306-318.
On to LTFGWCYKLVPVEPDKVEEANKGENTSLLHPV (modifications not checked) [Nef10 peptide (positions 137-168 of the HIV-1 Nef protein, Bru strain), P03406 137-168], for which the IC50 amounted to 650 nM.
The same measure, in the same setting: the figure for EWRFDSRLAFHHVAREL (modifications not checked) [Nef13 peptide (positions 182-198 of the HIV-1 Nef protein, Bru strain), P03406 182-198] is 5000 nM.

Another assay concerns the target HLA-DR molecule encoded by the allele DRB1*0401 (human). Nature of the assay: competition ELISA vs biotinylated HA 306-318.
In turn, LTFGWCYKLVPVEPDKVEEANKGENTSLLHPV (modifications not checked) [Nef10 peptide (positions 137-168 of the HIV-1 Nef protein, Bru strain), P03406 137-168] registered an IC50 of 150 nM. This lies in the sub-micromolar range.
TQGYFPDWQNYTPGPG (modifications not checked) [Nef8 peptide (positions 117-132 of the HIV-1 Nef protein, Bru strain), P03406 117-132]: the IC50 was 8000 nM.
As for EWRFDSRLAFHHVAREL (modifications not checked) [Nef13 peptide (positions 182-198 of the HIV-1 Nef protein, Bru strain), P03406 182-198], the IC50 turned out to be 3250 nM.
DPEREVLEWRFDSRLA (modifications not checked) [Nef12 peptide (positions 175-190 of the HIV-1 Nef protein, Bru strain), P03406 175-190] returned an IC50 of 2500 nM.

The target of another assay is HLA-DR molecule encoded by the allele DRB5*0101 (human). The assay can be described thus: competition ELISA vs biotinylated HA 306-318.
On to WRFDSRLAFHHVARE (modifications not checked) [Nef13.3 peptide (positions 183-197 of the HIV-1 Nef protein, Bru strain), P03406 183-197], for which the 50% inhibitory concentration (IC50) is 15 nM.
On to LTFGWCYKLVPVEPDKVEEANKGENTSLLHPV (modifications not checked) [Nef10 peptide (positions 137-168 of the HIV-1 Nef protein, Bru strain), P03406 137-168], for which the IC50 is 250 nM.
In turn, EWRFDSRLAFHHVAREL (modifications not checked) [Nef13 peptide (positions 182-198 of the HIV-1 Nef protein, Bru strain), P03406 182-198] registered an IC50 of 10 nM.

The target in another assay is T2, HLA-DR molecule encoded by the allele …. The assay can be described thus: competition ELISA vs biotinylated B1 21-36.
The molecule WRFDSRLAFHHVARE (modifications not checked) [Nef13.3 peptide (positions 183-197 of the HIV-1 Nef protein, Bru strain), P03406 183-197] yielded an IC50 of 250 nM.
Same read-out and setting: the figure for EWRFDSRLAFHHVAREL (modifications not checked) [Nef13 peptide (positions 182-198 of the HIV-1 Nef protein, Bru strain), P03406 182-198] is 750 nM; for REVLEWRFDSRLAFH (modifications not checked) [Nef13.1 peptide (positions 178-192 of the HIV-1 Nef protein, Bru strain), P03406 178-192] it is 867 nM.

The target in the next assay is T3, HLA-DR molecule encoded by the allele …. The assay can be described thus: competition ELISA vs biotinylated E2/E168.
With LTFGWCYKLVPVEPDKVEEANKGENTSLLHPV (modifications not checked) [Nef10 peptide (positions 137-168 of the HIV-1 Nef protein, Bru strain), P03406 137-168], the 50% inhibitory concentration (IC50) was determined as 55 nM. In other words, the double-digit nanomolar range.
Regarding EWRFDSRLAFHHVAREL (modifications not checked) [Nef13 peptide (positions 182-198 of the HIV-1 Nef protein, Bru strain), P03406 182-198], the 50% inhibitory concentration (IC50) worked out at 6330 nM.
As to DPEREVLEWRFDSRLA (modifications not checked) [Nef12 peptide (positions 175-190 of the HIV-1 Nef protein, Bru strain), P03406 175-190], the IC50 worked out at 275 nM.

The target in a further assay is HLA-DR molecule encoded by the allele DRB1*0301 (human). The assay can be described thus: competition ELISA vs biotinylated MT 2-16.
WRFDSRLAFHHVARE (modifications not checked) [Nef13.3 peptide (positions 183-197 of the HIV-1 Nef protein, Bru strain), P03406 183-197] returned a half-maximal inhibitory concentration (IC50) of 567 nM.
Still for that read-out and setting: then LTFGWCYKLVPVEPDKVEEANKGENTSLLHPV (modifications not checked) [Nef10 peptide (positions 137-168 of the HIV-1 Nef protein, Bru strain), P03406 137-168], with 175 nM; and EWRFDSRLAFHHVAREL (modifications not checked) [Nef13 peptide (positions 182-198 of the HIV-1 Nef protein, Bru strain), P03406 182-198], with 55 nM; and REVLEWRFDSRLAFH (modifications not checked) [Nef13.1 peptide (positions 178-192 of the HIV-1 Nef protein, Bru strain), P03406 178-192], with 125 nM.
On the same count and under the same terms, the figure for DPEREVLEWRFDSRLA (modifications not checked) [Nef12 peptide (positions 175-190 of the HIV-1 Nef protein, Bru strain), P03406 175-190] is 3500 nM.

Another assay deals with HLA-DR molecule encoded by the allele DRB1*0701 (human). Nature of the assay: competition ELISA vs biotinylated YKL.
As for WIYHTQGYFPDWQNYT (modifications not checked) [Nef7 peptide (positions 113-128 of the HIV-1 Nef protein, Bru strain), P03406 113-128], the IC50 amounted to 4000 nM.
The same measure, in the same setting: the figure for WRFDSRLAFHHVARE (modifications not checked) [Nef13.3 peptide (positions 183-197 of the HIV-1 Nef protein, Bru strain), P03406 183-197] is 900 nM; for LTFGWCYKLVPVEPDKVEEANKGENTSLLHPV (modifications not checked) [Nef10 peptide (positions 137-168 of the HIV-1 Nef protein, Bru strain), P03406 137-168] it is 65 nM.
EWRFDSRLAFHHVAREL (modifications not checked) [Nef13 peptide (positions 182-198 of the HIV-1 Nef protein, Bru strain), P03406 182-198] registered a concentration for half-maximal inhibition (IC50) of 150 nM. Against the preceding molecule, the IC50 is about 2.3-fold higher.
The same measure, in the same setting: the figure for REVLEWRFDSRLAFH (modifications not checked) [Nef13.1 peptide (positions 178-192 of the HIV-1 Nef protein, Bru strain), P03406 178-192] is 350 nM.
In the case of DPEREVLEWRFDSRLA (modifications not checked) [Nef12 peptide (positions 175-190 of the HIV-1 Nef protein, Bru strain), P03406 175-190], the IC50 worked out at 700 nM.
